Experimental data: patent publication US20170363643A1

How the values were obtained:
[1] = biological target: His-tagged recombinant human SMN protein (ProteinTech, catalog # ag14333) (human) (UniProt Q16637); test: Erenna sandwich assay, capture MABE230; human CSF sample 2 spiked with recombinant SMN 5.0 pg/mL (endogenous SMN also present)
[2] = biological target: His-tagged recombinant human SMN protein (ProteinTech, catalog # ag14333) (human) (UniProt Q16637); test: Erenna sandwich assay, capture MABE230; human CSF sample 4 spiked with recombinant SMN 10.0 pg/mL (endogenous SMN also present)
[3] = biological target: His-tagged recombinant human SMN protein (ProteinTech, catalog # ag14333) (human) (UniProt Q16637); test: Erenna sandwich assay, capture MABE230; SMN 2 pg/mL, MPs 10 µg/well, Det Ab 100 ng/mL, Cap Ab/MP 25 µg/mg
[4] = biological target: His-tagged recombinant human SMN protein (ProteinTech, catalog # ag14333) (human) (UniProt Q16637); test: Erenna sandwich assay, capture MABE230 12.5 µg/mg MPs; Det Ab 1000 ng/mL; SMN 0.93 pg/mL
[5] = biological target: His-tagged recombinant human SMN protein (ProteinTech, catalog # ag14333) (human) (UniProt Q16637); test: Erenna sandwich assay, capture MABE230; SMN 2 pg/mL, MPs 10 µg/well, Det Ab 500 ng/mL, Cap Ab/MP 12.5 µg/mg
[6] = biological target: His-tagged recombinant human SMN protein (ProteinTech, catalog # ag14333) (human) (UniProt Q16637); test: Erenna sandwich assay, capture MABE230 12.5 µg/mg MPs; Det Ab 1000 ng/mL; SMN 66.67 pg/mL
[7] = biological target: endogenous SMN protein in human CSF (human) (UniProt Q16637); test: Erenna sandwich assay, capture MABE230; human CSF sample 3, unspiked (endogenous SMN only)
[8] = biological target: His-tagged recombinant human SMN protein (ProteinTech, catalog # ag14333) (human) (UniProt Q16637); test: Erenna sandwich assay, capture MABE230; SMN 2 pg/mL, MPs 10 µg/well, Det Ab 500 ng/mL, Cap Ab/MP 25 µg/mg
[9] = biological target: endogenous SMN protein in human CSF (human) (UniProt Q16637); test: Erenna sandwich assay, capture MABE230; human CSF sample 5, unspiked (endogenous SMN only)
[10] = biological target: His-tagged recombinant human SMN protein (ProteinTech, catalog # ag14333) (human) (UniProt Q16637); test: Erenna sandwich assay, capture MABE230; SMN 2 pg/mL, MPs 5 µg/well, Det Ab 50 ng/mL, Cap Ab/MP 25 µg/mg
[11] = biological target: His-tagged recombinant human SMN protein (ProteinTech, catalog # ag14333) (human) (UniProt Q16637); test: Erenna sandwich assay, capture MABE230; SMN 2 pg/mL, MPs 10 µg/well, Det Ab 100 ng/mL, Cap Ab/MP 12.5 µg/mg
[12] = biological target: His-tagged recombinant human SMN protein (ProteinTech, catalog # ag14333) (human) (UniProt Q16637); test: Erenna sandwich assay, capture MABE230 12.5 µg/mg MPs; Det Ab 500 ng/mL; SMN 0.93 pg/mL
[13] = biological target: His-tagged recombinant human SMN protein (ProteinTech, catalog # ag14333) (human) (UniProt Q16637); test: Erenna sandwich assay, capture MABE230 12.5 µg/mg MPs; Det Ab 500 ng/mL; SMN 0.46 pg/mL
[14] = biological target: His-tagged recombinant human SMN protein (ProteinTech, catalog # ag14333) (human) (UniProt Q16637); test: Erenna sandwich assay, capture MABE230; human CSF sample 3 spiked with recombinant SMN 5.0 pg/mL (endogenous SMN also present)
[15] = biological target: His-tagged recombinant human SMN protein (ProteinTech, catalog # ag14333) (human) (UniProt Q16637); test: Erenna sandwich assay, capture MABE230; SMN 2 pg/mL, MPs 10 µg/well, Det Ab 1000 ng/mL, Cap Ab/MP 12.5 µg/mg
[16] = biological target: endogenous SMN protein in human CSF (human) (UniProt Q16637); test: Erenna sandwich assay, capture MABE230; human CSF sample 4, unspiked (endogenous SMN only)
[17] = biological target: His-tagged recombinant human SMN protein (ProteinTech, catalog # ag14333) (human) (UniProt Q16637); test: Erenna sandwich assay, capture MABE230; SMN 2 pg/mL, MPs 5 µg/well, Det Ab 1000 ng/mL, Cap Ab/MP 12.5 µg/mg
[18] = biological target: His-tagged recombinant human SMN protein (ProteinTech, catalog # ag14333) (human) (UniProt Q16637); test: Erenna sandwich assay, capture MABE230; human CSF sample 3 spiked with recombinant SMN 10.0 pg/mL (endogenous SMN also present)
[19] = biological target: His-tagged recombinant human SMN protein (ProteinTech, catalog # ag14333) (human) (UniProt Q16637); test: Erenna sandwich assay, capture MABE230; SMN 2 pg/mL, MPs 5 µg/well, Det Ab 500 ng/mL, Cap Ab/MP 25 µg/mg
[20] = biological target: His-tagged recombinant human SMN protein (ProteinTech, catalog # ag14333) (human) (UniProt Q16637); test: Erenna sandwich assay, capture MABE230; SMN 2 pg/mL, MPs 5 µg/well, Det Ab 100 ng/mL, Cap Ab/MP 12.5 µg/mg
[21] = biological target: His-tagged recombinant human SMN protein (ProteinTech, catalog # ag14333) (human) (UniProt Q16637); test: Erenna sandwich assay, capture MABE230 12.5 µg/mg MPs; Det Ab 1000 ng/mL; SMN 7.41 pg/mL
[22] = biological target: His-tagged recombinant human SMN protein (ProteinTech, catalog # ag14333) (human) (UniProt Q16637); test: Erenna sandwich assay, capture MABE230 12.5 µg/mg MPs; Det Ab 500 ng/mL; SMN 200.00 pg/mL

“ProteinTech anti-SMN2 (catalog #60154-1-Ig) (antibody)” gave a detected events (DE) (detected events) [1] of 5310, a detected events (DE) (detected events) [2] of 8660 and a detected events (DE) (detected events) [3] of 1130. It also gave a detected events (DE) (detected events) [4] of 1170, an event photons (EP) (event photons) [4] of 171000 and a detected events (DE) (detected events) [5] of 2120. For the same substance, the detected events (DE) (detected events) [6] was 11500, the event photons (EP) (event photons) [6] was 1.06e+07 and the detected events (DE) (detected events) [7] was 278. For the same substance, the detected events (DE) (detected events) [8] was 2400, the detected events (DE) (detected events) [9] was 479 and the detected events (DE) (detected events) [10] was 560. For the same substance, the detected events (DE) (detected events) [11] was 1050, the detected events (DE) (detected events) [12] was 967 and the event photons (EP) (event photons) [12] was 135000. For the same substance, the detected events (DE) (detected events) [13] was 562, the event photons (EP) (event photons) [13] was 77500 and the detected events (DE) (detected events) [14] was 5980. It also gave a detected events (DE) (detected events) [15] of 2920, a detected events (DE) (detected events) [16] of 375 and a detected events (DE) (detected events) [17] of 2590. It also gave a detected events (DE) (detected events) [18] of 9140, a detected events (DE) (detected events) [19] of 1930 and a detected events (DE) (detected events) [20] of 753. The detected events (DE) (detected events) [21] was 7200, the event photons (EP) (event photons) [21] was 1.32e+06 and the detected events (DE) (detected events) [22] was 9460. The event photons (EP) (event photons) [22] was 1.86e+07.
